Measured values: patent publication US20080187530A1

Biological target: formyl peptide receptor-like 1 (FPRL1) (human) (UniProt P25090)
Assay: cell-based or functional assay

UniProt P25090, sequence (P25090 whole entry): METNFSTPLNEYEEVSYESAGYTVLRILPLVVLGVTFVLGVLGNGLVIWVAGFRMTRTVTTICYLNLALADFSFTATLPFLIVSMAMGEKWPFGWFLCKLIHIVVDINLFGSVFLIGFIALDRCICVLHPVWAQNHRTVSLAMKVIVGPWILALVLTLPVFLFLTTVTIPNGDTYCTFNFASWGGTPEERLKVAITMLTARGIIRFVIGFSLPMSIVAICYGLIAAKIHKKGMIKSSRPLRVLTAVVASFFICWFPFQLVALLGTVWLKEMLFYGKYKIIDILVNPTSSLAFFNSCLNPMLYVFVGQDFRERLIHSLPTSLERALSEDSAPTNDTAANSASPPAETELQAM

LL-37 peptide (from UniProt P49913 134-170)
decrease in proliferation of HaCaT cells treated with LL-37 after pretreatment with pertussis toxin: 50%
